Reference: patent publication EP4538286A1 (Adlai Nortye Biopharma Co., Ltd., dated 2025)

T1: human CTLA4 protein (human, UniProt P16410 37-162, limits assumed)
T1 construct: bought protein coated on the ELISA plate; also called human CTLA4 antigen
T1 sequence (looked up): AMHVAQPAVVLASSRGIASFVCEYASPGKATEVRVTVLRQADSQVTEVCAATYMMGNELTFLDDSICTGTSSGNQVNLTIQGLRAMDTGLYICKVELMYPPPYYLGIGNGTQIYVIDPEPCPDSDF


How the values were obtained:
[1] = molecular target: T1, human CTLA4 protein; test: ELISA, plate-coated human CTLA4
[2] = molecular target: T2, human CD28 protein (human, UniProt P10747 19-152); test: ELISA, plate-coated human CD28; parameters: binding strength @ 100nM: reference not given here
T2 construct: bought protein coated on the ELISA plate; also called human CD28 antigen

[3] = molecular target: PD-L1 on TCR activator PD-L1-CHO cells (UniProt Q9NZQ7 19-290, limits assumed); test: cell-based or functional assay
Chain of PD-L1 on TCR activator PD-L1-CHO cells (Q9NZQ7 19-290 limits assumed): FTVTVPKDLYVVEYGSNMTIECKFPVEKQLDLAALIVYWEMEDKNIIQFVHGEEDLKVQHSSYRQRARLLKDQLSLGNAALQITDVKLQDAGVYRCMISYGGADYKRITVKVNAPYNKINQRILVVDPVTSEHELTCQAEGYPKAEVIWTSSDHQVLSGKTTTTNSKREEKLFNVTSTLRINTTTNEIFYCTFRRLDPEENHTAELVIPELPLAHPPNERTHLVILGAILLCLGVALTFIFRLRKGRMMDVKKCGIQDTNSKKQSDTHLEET

T2 sequence (P10747 19-152 limits assumed): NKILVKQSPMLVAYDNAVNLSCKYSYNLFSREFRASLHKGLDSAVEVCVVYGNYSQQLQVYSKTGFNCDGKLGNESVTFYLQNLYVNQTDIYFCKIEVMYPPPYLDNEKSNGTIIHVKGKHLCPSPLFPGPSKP

| Binder | EC50 [1] | binding strength @ 20nM [1] | EC50 [2] | binding strength @ 100nM [2] | EC50(nM), Jurkat-NFAT-Luc/CHO-PDL1 [3] | The highest induction relative to 10 nM sugemalimab [3] | binding result [1] | binding result [2] |
| --- | --- | --- | --- | --- | --- | --- | --- | --- |
| Abs-353 (other, CD80 IgV mutant fused to the N-terminus of the sugemalimab heavy chain; also called CD80 IgV mutant E35N/A71E-sugemalimab fusion) heavy: VIHVTKEVKEVATLSCGHNVSVEELAQTRIYWQKNKKMVLTMMSGDMNIWPEYKNRTIFDITNNLSIVILELRPSDEGTYECVVLKYEKDAFKREHLAEVTLSVKADGGGGSGGGGSGGGGSGGGGSGEVQLLESGGGLVQPGGSLRLSCAASGFTFSSYAMSWVRQAPGKGLEWVSGISGSGGFTYYADSVKGRFTISRDNSKNTLYLQMNSLRAEDTAVYYCAKPPRGYNYGPFDYWGQGTLVTVSSASTKGPSVFPLAPCSRSTSESTAALGCLVKDYFPEPVTVSWNSGALTSGVHTFPAVLQSSGLYSLSSVVTVPSSSLGTKTYTCNVDHKPSNTKVDKRVESKYGPPCPPCPAPEFLGGPSVFLFPPKPKDTLMISRTPEVTCVVVDVSQEDPEVQFNWYVDGVEVHNAKTKPREEQFNSTYRVVSVLAVLHQDWLNGKEYKCKVSNKGLPSSIEKTISKAKGQPREPQVYTLPPSQEEMTKNQVSLTCLVKGFYPSDIAVAWESNGQPENNYKTTPPVLDSDGSFFLYSRLTVDKSRWQEGNVFSCSVMHEALHAHYTQKSLSLSLGK light: SYVLTQPPSVSVAPGQTARITCGGNNIGSKSVHWYQQKPGQAPVLVVYDDSDRPSGIPERFSGSNSGNTATLTISRVEAGDEADYYCQVWDSSSDHVVFGGGTKLTVLGQPKAAPSVTLFPPSSEELQANKATLVCLISDFYPGAVTVAWKADSSPVKAGVETTTPSKQSNNKYAASSYLSLTPEQWKSHRSYSCQVTHEGSTVEKTVAPTECS | 0.128 nM | 2490% | 25 nM | 1450% | 0.48 nM | 1130% | – | – |
| Abs-257 (other, the paragraph that names the antibody is followed; also called CD80 IgV mutant H18W/A26C/A71E/L85N-sugemalimab fusion) heavy: VIHVTKEVKEVATLSCGWNVSVEELCQTRIYWQKEKKMVLTMMSGDMNIWPEYKNRTIFDITNNLSIVILELRPSDEGTYECVVNKYEKDAFKREHLAEVTLSVKADGGGGSGGGGSGGGGSGGGGSGEVQLLESGGGLVQPGGSLRLSCAASGFTFSSYAMSWVRQAPGKGLEWVSGISGSGGFTYYADSVKGRFTISRDNSKNTLYLQMNSLRAEDTAVYYCAKPPRGYNYGPFDYWGQGTLVTVSSASTKGPSVFPLAPCSRSTSESTAALGCLVKDYFPEPVTVSWNSGALTSGVHTFPAVLQSSGLYSLSSVVTVPSSSLGTKTYTCNVDHKPSNTKVDKRVESKYGPPCPPCPAPEFLGGPSVFLFPPKPKDTLMISRTPEVTCVVVDVSQEDPEVQFNWYVDGVEVHNAKTKPREEQFNSTYRVVSVLAVLHQDWLNGKEYKCKVSNKGLPSSIEKTISKAKGQPREPQVYTLPPSQEEMTKNQVSLTCLVKGFYPSDIAVAWESNGQPENNYKTTPPVLDSDGSFFLYSRLTVDKSRWQEGNVFSCSVMHEALHAHYTQKSLSLSLGK light: SYVLTQPPSVSVAPGQTARITCGGNNIGSKSVHWYQQKPGQAPVLVVYDDSDRPSGIPERFSGSNSGNTATLTISRVEAGDEADYYCQVWDSSSDHVVFGGGTKLTVLGQPKAAPSVTLFPPSSEELQANKATLVCLISDFYPGAVTVAWKADSSPVKAGVETTTPSKQSNNKYAASSYLSLTPEQWKSHRSYSCQVTHEGSTVEKTVAPTECS | – | – | – | – | 0.82 nM | 122% | no binding | no binding |
| Abs-260 (other, the paragraph that names the antibody is followed; also called CD80 IgV mutant A26M/A71E/L85D-sugemalimab fusion) heavy: VIHVTKEVKEVATLSCGHNVSVEELMQTRIYWQKEKKMVLTMMSGDMNIWPEYKNRTIFDITNNLSIVILELRPSDEGTYECVVDKYEKDAFKREHLAEVTLSVKADGGGGSGGGGSGGGGSGGGGSGEVQLLESGGGLVQPGGSLRLSCAASGFTFSSYAMSWVRQAPGKGLEWVSGISGSGGFTYYADSVKGRFTISRDNSKNTLYLQMNSLRAEDTAVYYCAKPPRGYNYGPFDYWGQGTLVTVSSASTKGPSVFPLAPCSRSTSESTAALGCLVKDYFPEPVTVSWNSGALTSGVHTFPAVLQSSGLYSLSSVVTVPSSSLGTKTYTCNVDHKPSNTKVDKRVESKYGPPCPPCPAPEFLGGPSVFLFPPKPKDTLMISRTPEVTCVVVDVSQEDPEVQFNWYVDGVEVHNAKTKPREEQFNSTYRVVSVLAVLHQDWLNGKEYKCKVSNKGLPSSIEKTISKAKGQPREPQVYTLPPSQEEMTKNQVSLTCLVKGFYPSDIAVAWESNGQPENNYKTTPPVLDSDGSFFLYSRLTVDKSRWQEGNVFSCSVMHEALHAHYTQKSLSLSLGK light: SYVLTQPPSVSVAPGQTARITCGGNNIGSKSVHWYQQKPGQAPVLVVYDDSDRPSGIPERFSGSNSGNTATLTISRVEAGDEADYYCQVWDSSSDHVVFGGGTKLTVLGQPKAAPSVTLFPPSSEELQANKATLVCLISDFYPGAVTVAWKADSSPVKAGVETTTPSKQSNNKYAASSYLSLTPEQWKSHRSYSCQVTHEGSTVEKTVAPTECS | – | – | – | – | 0.65 nM | 128% | no binding | no binding |

Further lines, results first:

| EC50 [1] | binding strength @ 20nM [1] | EC50 [2] | binding strength @ 100nM [2] | EC50(nM), Jurkat-NFAT-Luc/CHO-PDL1 [3] | The highest induction relative to 10 nM sugemalimab [3] | binding result [1] | binding result [2] | Binder |
| --- | --- | --- | --- | --- | --- | --- | --- | --- |
| 24.4 nM | 1200% | 27.9 nM | 283% | 0.28 nM | 215% | – | – | Abs-99 (other, CD80 IgV fused to the N-terminus of the heavy chain of the anti-PD-L1 antibody sugemalimab; also called wild type Abs-99; wild-type CD80 IgV-sugemalimab fusion polypeptide complex) heavy: VIHVTKEVKEVATLSCGHNVSVEELAQTRIYWQKEKKMVLTMMSGDMNIWPEYKNRTIFDITNNLSIVILALRPSDEGTYECVVLKYEKDAFKREHLAEVTLSVKADGGGGSGGGGSGGGGSGGGGSGEVQLLESGGGLVQPGGSLRLSCAASGFTFSSYAMSWVRQAPGKGLEWVSGISGSGGFTYYADSVKGRFTISRDNSKNTLYLQMNSLRAEDTAVYYCAKPPRGYNYGPFDYWGQGTLVTVSSASTKGPSVFPLAPCSRSTSESTAALGCLVKDYFPEPVTVSWNSGALTSGVHTFPAVLQSSGLYSLSSVVTVPSSSLGTKTYTCNVDHKPSNTKVDKRVESKYGPPCPPCPAPEFLGGPSVFLFPPKPKDTLMISRTPEVTCVVVDVSQEDPEVQFNWYVDGVEVHNAKTKPREEQFNSTYRVVSVLAVLHQDWLNGKEYKCKVSNKGLPSSIEKTISKAKGQPREPQVYTLPPSQEEMTKNQVSLTCLVKGFYPSDIAVAWESNGQPENNYKTTPPVLDSDGSFFLYSRLTVDKSRWQEGNVFSCSVMHEALHAHYTQKSLSLSLGK light: SYVLTQPPSVSVAPGQTARITCGGNNIGSKSVHWYQQKPGQAPVLVVYDDSDRPSGIPERFSGSNSGNTATLTISRVEAGDEADYYCQVWDSSSDHVVFGGGTKLTVLGQPKAAPSVTLFPPSSEELQANKATLVCLISDFYPGAVTVAWKADSSPVKAGVETTTPSKQSNNKYAASSYLSLTPEQWKSHRSYSCQVTHEGSTVEKTVAPTECS |
| – | – | – | – | 0.87 nM | 133% | no binding | no binding | Abs-256 (other, the paragraph that names the antibody is followed; also called CD80 IgV mutant H18W/A26M/A71E/L85D-sugemalimab fusion) heavy: VIHVTKEVKEVATLSCGWNVSVEELMQTRIYWQKEKKMVLTMMSGDMNIWPEYKNRTIFDITNNLSIVILELRPSDEGTYECVVDKYEKDAFKREHLAEVTLSVKADGGGGSGGGGSGGGGSGGGGSGEVQLLESGGGLVQPGGSLRLSCAASGFTFSSYAMSWVRQAPGKGLEWVSGISGSGGFTYYADSVKGRFTISRDNSKNTLYLQMNSLRAEDTAVYYCAKPPRGYNYGPFDYWGQGTLVTVSSASTKGPSVFPLAPCSRSTSESTAALGCLVKDYFPEPVTVSWNSGALTSGVHTFPAVLQSSGLYSLSSVVTVPSSSLGTKTYTCNVDHKPSNTKVDKRVESKYGPPCPPCPAPEFLGGPSVFLFPPKPKDTLMISRTPEVTCVVVDVSQEDPEVQFNWYVDGVEVHNAKTKPREEQFNSTYRVVSVLAVLHQDWLNGKEYKCKVSNKGLPSSIEKTISKAKGQPREPQVYTLPPSQEEMTKNQVSLTCLVKGFYPSDIAVAWESNGQPENNYKTTPPVLDSDGSFFLYSRLTVDKSRWQEGNVFSCSVMHEALHAHYTQKSLSLSLGK light: SYVLTQPPSVSVAPGQTARITCGGNNIGSKSVHWYQQKPGQAPVLVVYDDSDRPSGIPERFSGSNSGNTATLTISRVEAGDEADYYCQVWDSSSDHVVFGGGTKLTVLGQPKAAPSVTLFPPSSEELQANKATLVCLISDFYPGAVTVAWKADSSPVKAGVETTTPSKQSNNKYAASSYLSLTPEQWKSHRSYSCQVTHEGSTVEKTVAPTECS |
